T1: hIL-1α (Homo sapiens, UniProt P01583)
T1 sequence (P01583 113-271): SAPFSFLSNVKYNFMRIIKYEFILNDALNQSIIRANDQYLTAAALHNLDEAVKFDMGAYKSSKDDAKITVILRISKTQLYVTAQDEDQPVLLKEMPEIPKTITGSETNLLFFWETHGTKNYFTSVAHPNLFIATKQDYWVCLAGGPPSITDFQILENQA


Assays:
hIL-1β = hIL-1β (Homo sapiens, UniProt P01584); assay: Tetravalent dual-specific antigen binding by Biacore (sequential antigen injection), hIL-1β; conditions: for Response Unit, 1st antigen hIL-1β: hIL-1β injected as 1st antigen on captured DVD-Ig; for Response Unit, 2nd antigen hIL-1β: hIL-1β injected as 2nd antigen after hIL-1α
Sequence of hIL-1β (P01584 117-269): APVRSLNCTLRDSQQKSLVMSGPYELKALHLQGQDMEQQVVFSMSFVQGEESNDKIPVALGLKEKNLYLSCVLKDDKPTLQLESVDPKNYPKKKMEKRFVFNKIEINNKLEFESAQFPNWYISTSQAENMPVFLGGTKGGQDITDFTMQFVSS
Description: The kinetics of DVD-Ig molecules binding to rhIL1-α and rhIL1-β was determined by surface plasmon resonance-based measurements with a Biacore 3000 instrument (Biacore AB, Uppsala, Sweden) using HBS-EP (10 mM HEPES, pH 7.4, 150 mM NaCl, 3 mM EDTA, and 0.005% surfactant P20) at 25° C. All chemicals were obtained from Biacore AB (Uppsala, Sweden) or otherwise from a different source as described herein. Approximately, 5000 RU of goat anti-human IgG Fcγ fragment specific polyclonal antibody (Pierce Biotechnology Inc, Rockford, Ill.) diluted in 10 mM sodium acetate (pH 4.5) was directly immobilized across a CM5 research grade biosensor chip using a standard amine coupling kit according to manufacturer's instructions and procedures at […]. Unreacted moieties on the biosensor surface were blocked with ethanolamine. Modified carboxymethyl dextran surface in flowcell 2 and 4 was used as a reaction surface. Unmodified carboxymethyl dextran without goat anti-human IgG in flow cell 1 and 3 was used as the reference surface. For kinetic analysis, rate equations derived from the 1:1 Langmuir binding model were fitted simultaneously to association and dissociation phases of all ten injections (using global fit analysis) using the Bioevaluation 4.0.1 software. Purified DVD-Ig samples were diluted in HEPES-buffered saline for capture across goat anti-human IgG Fc specific reaction surfaces and injected over reaction matrices at a flow rate of […]. The association and dissociation rate constants, kon (M-1s-1) and koff (s-1) were determined under a continuous flow rate of […]. Rate constants were derived by making kinetic binding measurements at ten different antigen concentrations ranging from 1.25 to 1000 nM. The equilibrium dissociation constant (M) of the reaction between DVD-Ig molecule and rhIL1α/β was then calculated from the kinetic rate constants by the following formula: KD=koff/kon. Aliquots of rhIL1α/β samples were also simultaneously injected over a blank reference and reaction CM surface to record and subtract any nonspecific binding background to eliminate the majority of the refractive index change and injection noise. Surfaces were regenerated with two subsequent […] injections of 10 mM Glycine (pH 1.5) at a flow rate of […]. The anti-Fc antibody immobilized surfaces were completely regenerated and retained their full capture capacity over twelve cycles. The apparent stoichiometry of the captured DVD-Ig-rhIL1α/β complex was calculated under saturating binding conditions (steady-state equilibrium) using the following formula: […]
In addition, tetravalent dual-specific antigen binding of DVD-Ig binding protein was also analyzed by Biacore (Table 14). DVD-Ig binding protein was first captured via a goat anti-human Fc antibody on the Biacore sensor chip, and the first antigen was injected and a binding signal observed. As the DVD-Ig binding protein was saturated by the first antigen, the second antigen was then injected and the second signal observed. This was done either by first injecting IL-1β then IL-1α or by first injecting IL-1α followed by IL-1β for DVD2-Ig binding protein. In either sequence, a dual-binding activity was detected. Similar results were obtained for DVD1-Ig binding protein. Thus, each DVD-Ig binding protein was able to bind both antigens simultaneously as a dual-specific tetravalent molecule. […] Upon the injection of the second antigen, while DVD-Ig binding protein was already occupied by the first antigen, the stoichiometry of both DVD-Igs binding protein to the second antigen (i.e., hIL-1α or hIL-1β was between 1.0 and 1.3. Thus, DVD-Ig binding protein was able to bind two IL-1α and two IL-β molecules. DVD-Ig binding protein was first captured via a goat anti-human Fc antibody on the Biacore sensor chip, and the first antigen was injected and a binding signal observed, followed by the injection of the second antigen.

both IL-1α and IL-1β = assay: MRC-5 assay in the presence of both IL-1α and IL-1β (IL-8 synthesis); assay type: cell-based, human; conditions: equal amounts of hIL-1α and hIL-1β in the same culture; read-out: dual-inhibition activity (IL-8 synthesis by MRC-5 cells)
Description: (§1) The biological activity of DVD-Ig was measured using MRC-5 bioassay. The MRC-5 cell line is a human lung fibroblast cell line that produces IL-8 in response to human IL-1α and IL-1β in a dose-dependent manner. MRC-5 cells were obtained from ATCC and cultured in 10% FBS complete MEM at 37° C. in a 5% CO2 incubator. To determine neutralizing activity of the DVD-Ig against human IL-1α or IL-1β, 50 μl of antibody (1×10^−7 to 1×10^−12 M) in MEM/10% FBS was added to a 96 well plate and pre-incubated with 50 μl of hIL-1α or hIL-1β (200 pg/ml) for 1 hour at 37° C., 5% CO2. MRC-5 cells at a concentration of 1×10^5/ml were then added (100 μl) to all wells, and the plates were incubated overnight at 37° C. in a 5% CO2 incubator. The supernatants were harvested and human IL-8 production measured by standard ELISA (R&D Systems, Minneapolis, Minn.). Neutralizing activity of the DVD-Ig binding protein was determined by its ability to inhibit IL-8 production.
To determine if DVD-Ig binding protein was able to inhibit IL-8 production in the presence of both IL-1α and IL-1β, equal amounts of hIL-1α and hIL-1β were added in the same culture system of MRC-5 assay. […]

hIL-1α = biological target: T1, hIL-1α; assay: MRC-5 bioassay: neutralization of hIL-1α-induced IL-8 production; assay type: cell-based; conditions: for IC50: antigen hIL-1α, read-out: Potency IC50
Description: The MRC-5 cell line is a human lung fibroblast cell line that produces IL-8 in response to human IL-1α and IL-1β in a dose-dependent manner (see, Dinarello, Muegge, and Durum (2000) Curr. Protocols Immunol. 6:1). MRC-5 cells were cultured in 10% FBS complete MEM and grown at 37° C. in a 5% CO2 incubator. […] The supernatants were harvested, diluted, and IL-8 concentrations measured by ELISA using a standard IL-8 ELISA kit (R&D Systems). Antibody potency was determined by its ability to inhibit IL-8 production by MRC-5 cells.
as §1

[1] = hIL-1β injected as 2nd antigen, DVD-Ig already saturated with hIL-1α

| Molecule | Response Unit, 1st antigen hIL-1β (hIL-1β) | Response Unit, 2nd antigen hIL-1β (hIL-1β) | Stoichiometry hIL-1β:DVD-Ig (hIL-1β; [1]) | IC50 (both IL-1α and IL-1β) | neutralizing activity against hIL-1α, fold less than that of the chimeric antibodies (hIL-1α) | IC50 (hIL-1α) | Stoichiometry hIL-1β:DVD-Ig (hIL-1β; hIL-1β injected as 1st antigen) |
| --- | --- | --- | --- | --- | --- | --- | --- |
| DVD2-Ig: DVD-Ig as DVD1-Ig but with linkers ADAAP (light chain) and AKTTPP (heavy chain) (antibody) VH: MQLSGLTSEDSAMYFCVRFPTGNDYYAMDYWGQGTSVTVSSAKTTPPQIQLVQSGPELKKPGETVKISCKASGYTFRNYGMNWVKQAPGKDLKRMAWINTYTGESTYADDFKGRFAFSLETSASTAYLQINNLKNEDTATYFCARGIYYYGSSYAMDYWGQGTSVTVSS VL: PVEADDAATYYCQQNNEDPFTFGSGTKLEIKRADAAPNIQMTQTTSSLSASLGDRVTISCRASQDISNCLNWYQQKPDGTVKLLIYYTSRLHSGVPSRFSGSGSGTDYSLTISNLEQEDIATYFCQQGKTLPYAFGGGTKLEINR | 159 Response Unit | hIL-1β: 137 Response Unit | 1.3 | 1.2 nM | 3 fold | 2.9 nM |  |
| DVD1-Ig: DVD-Ig binding hIL-1α and hIL-1β; VH/VL of 13F5.G5 fused directly to N-terminus of 3D12.E3 VH/VL, no linker (antibody) VH: MQLSGLTSEDSAMYFCVRFPTGNDYYAMDYWGQGTSVTVSSQIQLVQSGPELKKPGETVKISCKASGYTFRNYGMNWVKQAPGKDLKRMAWINTYTGESTYADDFKGRFAFSLETSASTAYLQINNLKNEDTATYFCARGIYYYGSSYAMDYWGQGTSVTVSS VL: PVEADDAATYYCQQNNEDPFTFGSGTKLEIKRNIQMTQTTSSLSASLGDRVTISCRASQDISNCLNWYQQKPDGTVKLLIYYTSRLHSGVPSRFSGSGSGTDYSLTISNLEQEDIATYFCQQGKTLPYAFGGGTKLEINRR | 141 Response Unit | hIL-1β: 75 Response Unit | 1.0 | 2.2 nM | 3 fold | 2.3 nM | 1.5 |

From patent US8889130B2, “Treatment of osteoarthritis and pain” (Abbvie Inc., priority 2011, dated 2014)
